B1: PTPRZ1(1814-1822)-specific TCR (TCR, V domains shown)
Valpha: AQSVTQLDSQVPVFEEAPVELRCNYSSSVSVYLFWYVQYPNQGLQLLLKYLSGSTLVKGINGFEAEFNKSQTSFHLRKPSVHISDTAEYFCAVSDRGAGNMLTFGGGTRLMVKP
Vbeta: GAGVSQSPSNKVTEKGKDVELRCDPISGHTALYWYRQSLGQGLEFLIYFQGNSAPDKSGLPSDRFSAERTGGSVSTLTIQRTQQEDSAVYLCASSLGLAGGLAGELFFGEGSRLTVL
B2: NLGN4X(131-139)-specific TCR (TCR, V domains shown)
Valpha: RKEVEQDPGPFNVPEGATVAFNCTYSNSASQSFFWYRQDCRKEPKLLMSVYSSGNEDGRFTAQLNRASQYISLLIRDSKLSDSATYLCVVTDSGNTGKLIFGQGTTLQVKP
Vbeta: GAVVSQHPSWVICKSGTSVKIECRSLDFQATTMFWYRQFPKQSLMLMATSNEGSKATYEQGVEKDKFLINHASLTLSTLTVTSAHPEDSSFYICSARVDYNEQFFGPGTRLTVL

Assays:
[1] = biological target: T1, Protein Tyrosine Phosphatase Receptor Type Z1 (PTPRZ1) peptide on HLA-A*02:01 (human); experiment: multimer staining
T1 peptide: MIWEHNVEV

[2] = biological target: T2, Neuroligin-4, X-linked (NLGN4X) peptide on HLA-A*02:01 (human); experiment: multimer staining
T2 peptide: NLDTLMTYV

| Binder | binding result [1] | binding result [2] |
| --- | --- | --- |
| B1 | recognises |  |
| B2 |  | recognises |
